From publication PMC11253609, “Ancient nitrogenases are ATP dependent” (mBio, 2024)

Experiments:
[1] = molecular target: T1, Extant Strep-NifD2K2 (dinitrogenase, MoFe protein), Azotobacter vinelandii strain DJ2102 (Azotobacter vinelandii) (UniProt P07328)
T1 sequence 1: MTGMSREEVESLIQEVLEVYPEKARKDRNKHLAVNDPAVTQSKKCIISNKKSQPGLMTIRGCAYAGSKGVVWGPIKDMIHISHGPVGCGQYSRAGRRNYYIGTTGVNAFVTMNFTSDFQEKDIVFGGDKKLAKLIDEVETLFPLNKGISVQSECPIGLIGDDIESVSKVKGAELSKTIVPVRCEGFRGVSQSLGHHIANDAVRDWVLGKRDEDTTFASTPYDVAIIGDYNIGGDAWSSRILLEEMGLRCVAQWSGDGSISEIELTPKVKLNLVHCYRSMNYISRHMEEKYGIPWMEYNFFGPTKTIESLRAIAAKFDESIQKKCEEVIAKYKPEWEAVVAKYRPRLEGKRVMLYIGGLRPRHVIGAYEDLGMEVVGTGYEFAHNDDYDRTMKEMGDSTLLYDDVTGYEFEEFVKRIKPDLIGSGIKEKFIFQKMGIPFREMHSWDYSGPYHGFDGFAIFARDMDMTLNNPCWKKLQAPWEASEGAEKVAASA
T1 sequence 2: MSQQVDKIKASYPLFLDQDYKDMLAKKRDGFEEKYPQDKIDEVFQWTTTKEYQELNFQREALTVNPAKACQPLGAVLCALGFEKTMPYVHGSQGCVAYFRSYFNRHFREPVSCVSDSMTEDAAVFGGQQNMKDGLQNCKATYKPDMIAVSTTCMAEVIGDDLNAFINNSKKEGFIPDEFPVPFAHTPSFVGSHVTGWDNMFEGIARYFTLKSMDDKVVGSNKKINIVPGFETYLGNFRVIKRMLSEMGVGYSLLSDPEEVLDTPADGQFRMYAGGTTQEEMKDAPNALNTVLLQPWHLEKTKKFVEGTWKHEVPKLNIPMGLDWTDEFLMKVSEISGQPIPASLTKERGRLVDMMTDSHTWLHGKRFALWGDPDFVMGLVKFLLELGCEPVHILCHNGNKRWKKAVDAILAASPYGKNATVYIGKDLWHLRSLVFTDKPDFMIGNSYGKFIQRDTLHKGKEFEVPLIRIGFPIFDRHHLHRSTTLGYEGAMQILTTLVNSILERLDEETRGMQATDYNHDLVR

[2] = molecular target: T2, Extant Strep-II-tagged NifD (nitrogenase molybdenum-iron protein alpha chain), Azotobacter vinelandii strain … (Azotobacter vinelandii, UniProt P07328 1-492); assay: co-purification (Strep-Tactin affinity chromatography) with densitometry of SDS-PAGE bands; Strep-II-tagged NifD captured on Strep-Tactin from A. vinelandii cells; NifK found with it on SDS-PAGE (Coomassie blue); anaerobic handling; settings: partners not purified
T2 construct: nitrogenase molybdenum-iron protein alpha chain NifD, Azotobacter vinelandii, UniProtKB P07328; expressed from the A. vinelandii genome; The end that carries the Strep-II tag is stated only for the ancestral NifD (N-terminus); also called Strep-II-tagged WT NifD; D subunit
T2 sequence (looked up): T1 sequence 1

How did the inorganic phosphate released per electron transferred (Pi/e- ratio) during N2 reduction, 2 min under 1 atm N2; 0.42 µM NifD2K2 and 8.4 µM NifH2, 10 mM MgATP [1] turn out when “Extant NifH2 (dinitrogenase reductase, nitrogenase iron protein 1), Azotobacter vinelandii strain DJ884 (from UniProt P00459 2-290) (enzyme)” was run?
Its inorganic phosphate released per electron transferred (Pi/e- ratio) during N2 reduction, 2 min under 1 atm N2; 0.42 µM NifD2K2 and 8.4 µM NifH2, 10 mM MgATP is 2.8 ATP/e-.

B1: Extant NifK (nitrogenase molybdenum-iron protein beta chain), Azotobacter vinelandii strain DJ2102 (enzyme, UniProt P07329 1-523, looked up)
chain: T1 sequence 2
notes: nitrogenase molybdenum-iron protein beta chain NifK, Azotobacter vinelandii, UniProtKB P07329; also called K subunit
B1 was tested. Which “stoichiometry N” value [2] did it give?
The value was 0.93 D:K.
